{"source": "patent US8283439B2", "about": "“Recombinant fragments and synthetic peptides of 17-kDa polypeptide useful in detecting Bartonella henselae” (Medical Diagnostic Laboratories L.L.C., priority 2008, dated 2012)", "molecules": {"B1": {"name": "17-kDa Full Length: recombinant full-length 17-kDa (virB5) protein of Bartonella henselae strain Houston-1, aa 1-148; biotinylated in the IgM assay (protein, listed as Bartonella henselae)", "chain": "MKKYSLVTLLSLFCISHAKAQTATLTDEYYKKALENTQKLDVAKSQTAESIYESATQTANKIKDINNQLANLKADTKTKPEQLQALQIELTLLQAQLQADTLKIQSLAMIQAKDTKTKEELREEQTQKKHEDLQKQLKEKLEKSDVQL", "modifications": "biotinylated in IgM assay", "notes": "recombinant full-length 17-kDa (virB5) protein of Bartonella henselae strain Houston-1, aa 1-148; biotinylated in the IgM assay"}}, "key": {"[1]": {"tested_on": "antibodies against Bartonella henselae in IFA sero-positive patient sera (IgG)", "assay": "IgG ELISA with recombinant 17-kDa protein or Fragment 3 as coating antigen", "assay_type": "binding, human", "protocol": "In the ELISA assay, purified Fragment 3 protein was diluted in coating buffer to a final concentration of 250 ng/ml. Antigen was adhered to 96-well plate by applying 100 μl this solution per well and incubated at 4° C. for 18 hours. Uncoated antigen was removed by washing the plate three times with PBST wash buffer. After washing, post-coating was done with 300 μl blocking reagent General Blocker BB1 in each well for 1 hour at 22° C. Primary polyclonal antibody from 100 μl serum in 1:100 sample dilution buffer each well was allowed to react with coated antigen for 1 hour at 22° C. After five wash steps with PBST wash buffer, each well was incubated with […] peroxidase conjugated goat anti-human IgG (KPL, 1:20,000 from 1 mg/ml stock in sample dilute buffer) for 30 minutes at 22° C. The excess amount of secondary antibody was also removed by five wash steps with PBST wash buffer. The reaction were visualized by adding 100 μl substrate 3,3′5,5′-Tetramethylbenzidine solution and incubated at 22° C. for 15 minutes. The reaction was terminated by adding 100 μl 0.5 M H2SO4 per well before taking OD450nm measurement. Receiver operating characteristic curve (ROC) analysis was calculated with associated 95% confidence interval using a binomial distribution with the MedCalc program.\nIn this series of studies, a panel containing 12 IFA positive serum samples and 6 IFA negative serum samples was evaluated by ELISA using the respective antigen as the coating antigen. FIG. 15 presents the results of this ELISA analysis. […] Neither antigen bound antibody in sample #3508.\nTo further characterize the comparative abilities of recombinant Fragment 3 and the full length protein to bind antibodies to Bartonella henselae, a broader panel of 47 serum samples (27 IFA positive serum samples and 20 IFA negative serum samples) was analyzed by ELISA. The raw data was analyzed with ROC curve comparison in statistic software MedCalc.\nA panel of 47 human sera was used in an IgG ELISA to evaluate the sensitivity and specificity for Fragment 3 mutants. The raw data was analyzed by interactive dot diagram assay (FIGS. 31 and 32).\nPurified protein was diluted in coating buffer to a final concentration 250 ng/ml. Antigen was adhered to 96-well plate by applying 100 μl above prepared solution per well and incubate at 4° C. for 18 hours. We removed uncoated antigen by washing plate three times with PBST wash buffer. After washing, post-coating was done with 300 μl blocking reagent General Blocker BB1 each well for 1 hour at 22° C. Then primary polyclonal antibody from 100 μl serum in 1:100 sample dilution buffer each well was allowed to react with coated antigen for 1 hour at 22° C. After five times washing with PBST wash buffer, we incubated each well with 100 μl peroxidase conjugated goat anti-human IgG (KPL, 1:20,000 from 1 mg/ml stock in sample dilute buffer) for 30 minutes at 22° C. The excess amount of secondary antibody was also removed by five times washing with PBST wash buffer. The reaction were visualized by adding 100 μl substrate 3,3′5,5′-Tetramethylbenzidine Solution and incubated at 22° C. for 15 minutes. In the end, we terminated reaction with 100 μl 0.5 M H2SO4 per well before taking OD450nm measurement. Receiver operating characteristic curve (ROC) analysis was calculated with associated 95% confidence interval using a binomial distribution with MedCalc program."}, "[2]": {"tested_on": "IgM in IFA-positive patient sera", "assay": "IgM Capture ELISA with biotinylated recombinant 17-kDa full-length protein", "assay_type": "binding, human", "parameters": "AUC (ROC analysis of the calibrated slopes): unit not given beside the values", "conditions": "IFA-positive (n=13) and IFA-negative (n=34) patient samples", "protocol": "For the IgM Capture assay, purified recombinant 17-kDa full-length protein (1 mg/ml) was biotinylated using the Sulfo-NHS Biotin kit (Pierce, Rockford Ill.). MaxiSorp 96 well plates (Nunc, Rochester N.Y.) were coated with anti-human IgM (KPL, Gaithersburg, Md.) at a concentration of 1 μg/ml in coating buffer (0.015 M Na2CO3, 0.035 M NaHCO3 [pH 9.6]) and incubated overnight at 4° C. The plates were washed with PBS-Tween 20 and blocked with 1% bovine serum albumin (BSA) at room temperature. IgM positive and negative patient sera were used. The sera were diluted 1:100 in 1% BSA with 0.05% Tween 20, prior to being run in duplicate, and reacted with the plates for 1 hr at room temperature.\nBiotinylated recombinant 17-kDa protein was added to the plates at 1 μg/ml in dilution buffer and incubated at room temperature for 1 h with shaking. Streptavidin-HRP (Southern Biotech, Birmingham Ala.) was used to detect the plates followed by development with 3,3′,5,5′-Tetramethylbenzidine (TMB) (Moss, Pasadena, Md.) for 30 minutes. The reaction was stopped with 2M HCl and the absorbance at 450 nm was recorded after a period of 5-30 minutes.\nReceiver operating characteristic (ROC) curve analysis was used to evaluate the performance of the IgM Capture method. ROC plots can be used to compare all tests, even when tests have quite different cutoff values. The study of area under the curve (AUC), which evaluates the probabilities of (1-Specificity) and Sensitivity, is an important statistical feature of such curves (i.e., for samples with Sensitivity=Specificity=100%, AUC would be 1.0)."}}, "data": [{"molecule": "B1", "values": [{"measurement": "area under ROC curve (AUC)", "setting": "[1]; IgG ELISA, panel of 47 serum samples (27 IFA positive, 20 IFA negative), MedCalc ROC", "value": 0.853}, {"measurement": "reaction with IFA negative serum samples", "setting": "[1]; panel of 12 IFA positive and 6 IFA negative serum samples", "value": "Neither antigen reacted with any of the IFA negative serum samples"}, {"measurement": "AUC (ROC analysis of the calibrated slopes)", "setting": "[2]", "value": 0.998}, {"measurement": "sensitivity", "setting": "[2]", "value": 100, "unit": "%"}, {"measurement": "specificity", "setting": "[2]", "value": 97.1, "unit": "%"}]}]}
